Measurements as given in patent publication US20190276499A1, “Protein VII Fragments and Methods of Use Thereof for the Treatment of Inflammatory Disorders” (priority 2016, published 2019).

Tests used:
[1] = target: T1, HMGB1 (Homo sapiens, UniProt P09429); assay: Precision cut lung slice (PCLS) immunofluorescence; type: cell-based; design: tissue National Disease Research Interchange (NDRI); host or cells: human precision cut lung slices; settings: PCLS from human donors
T1 sequence (P09429 1-215): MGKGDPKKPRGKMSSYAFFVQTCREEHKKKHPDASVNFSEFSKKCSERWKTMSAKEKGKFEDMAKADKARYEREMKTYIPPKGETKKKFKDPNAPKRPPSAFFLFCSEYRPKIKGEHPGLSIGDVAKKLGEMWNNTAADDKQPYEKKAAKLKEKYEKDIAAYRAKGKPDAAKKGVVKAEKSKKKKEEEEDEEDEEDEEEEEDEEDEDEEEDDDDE
Protocol: PCLS were obtained and prepared as described (Cooper et al. (2008) J. Allergy Clin. Immunol., 122:734-740; Koziol-White et al. (2011) Expert Rev. Respir. Med., 5:767-777). De-identified human lung tissue from donors was obtained from the National Disease Research Interchange (NDRI), Philadelphia, Pa. Samples were infected with 10^8 pfu of Ad5 per slice or 10^9 GC of rAd VII-GFP for 24 hours. Samples were fixed in 4% PFA at room temperature for 15 minutes and washed three times in PBS. Samples were permiabilized with 0.5% Triton X and washed twice more in PBS. Samples were then incubated with 3% BSA and 0.03% Triton X in PBS for 1 hour to block. Primary antibodies (DBP or HMGB1) were incubated in the same buffer for 1 hour and then samples were washed three times in PBS with 3% BSA, incubated with secondary antibodies and DAPI for 1 hour, and washed three more times. Whole slices were mounted on slides with mounting solution and imaged by confocal microscopy.

[2] = tested on: cellular chromatin; assay: Chromatin appearance in inducible cell lines (immunofluorescence, DAPI); type: cell-based; settings: inducible expression
Text: Primary small airway epithelial cells (SAECs), U2OS, HeLa, 293, THP-1 and A549 cells were obtained from the American Tissue Culture Collection (ATCC) and grown according to the provider's instructions. Acceptor cells for generation of inducible cell lines were used as reported (Khandelia et al. (2011) Proc. Natl. Acad. Sci., 108:12799-12804). Protein VII, preVII and V were cloned from genomic DNA isolated from HeLa cells infected with adenovirus type 5 and inserted into the inducible plasmid cassette with a C-terminal HA tag using restriction enzymes BsrGI and AgeI. Positive clones were selected in DH5a cells, sequenced, and transfected into A549, U2OS or HeLa acceptor cells along with plasmid expressing the Cre recombinase. Recombined clones were selected by puromycin resistance (1 μg/mL) and induced with doxycycline (0.2 μg/mL) to express the desired protein. Protein expression was verified by immunofluorescence and western blot. All figures shown are after 4 days of induction unless otherwise stated. Protein VII and preVII were also verified by HPLC purification and mass spectrometry analysis. Point mutations were generated by gene synthesis from Genewiz.
Cells were grown on glass coverslips in 24-well plates and either infected or induced with doxycycline (0.2 μg/mL). […]

B1: protein VII: mature protein VII of human adenovirus type 5 (SEQ ID NO:1), expressed in cells, mostly with C-terminal HA tag (protein)
chain: AKKRSDQHPVRVRGHYRAPWGAHKRGRTGRTTVDDAIDAVVEEARNYTPTPPPVSTVDAAIQTVVRGARRYAKMKRRRRRVARRHRRRPGTAAQRAAAALLNRARRTGRRAAMRAARRLAAGIVTVPPRSRRRAAAAAAAAISAMTQGRRGNVYWVRDSVSGLRVPVRTRPPRN
modifications: C-terminal HA tag; Human adenovirus 5
- Relocalization of endogenous HMGB1 in lung slices [1]: sufficient to relocalize endogenous HMGB1
- Effect on chromatin appearance [2]: altered nuclear DNA into a punctate appearance
